Legend:
Assay in all cases: cell-based or functional assay
[1] = target: MART-1 peptide pulsed on HLA-A02 expressing K562 target cells (human)
[2] = target: MART-1 peptide pulsed on K562 target cells expressing the non-cognate MHC HLA-A01 (human)
[3] = target: MART1 peptide-HLA (pHLA) single polypeptide chain (antigenic peptide, β2-microglobulin, HLA-A2 domains) constitutively expressed on K562 target cells (human)

| Substance | Cytotoxic Killing [1] | Cytotoxic Killing [2] | Cytotoxic Killing [3] | single-cell secretome (Isoplexis), CD8+ T cells producing more than one cytokine [1] |
| --- | --- | --- | --- | --- |
| MART-1 (F5) TCR expressed by lentiviral transduction (pCCLc-MND-F5TCR-Myc271), on human CD3+ T cells (TCR; unit assumed) | 38.1% | 8.5% | 39.4% |  |
| MART-1 neoTCR (F5) encoded by HR template NTC9385R-TRAC(1k)DTS_P2A.F5.TRBopt.f-P2A.TRA(Va)opt (SEQ ID NO: 10), on edited primary human T cells |  |  |  | < 40% |
| MART-1 neoTCR (F5) encoded by HR template NTC9385R-TRAC(1k)DTS_P2A.F5.TRBopt.f-P2A.TRAopt.BGHpA (SEQ ID NO: 9), on edited primary human T cells (TCR; unit assumed) | 25.6% | 10.6% | 34.5% |  |
| NY-ESO (1G4) TCR expressed by lentiviral transduction (pCCLc-MND-1G4TCR-Myc271), on human CD3+ T cells (TCR; unit assumed) | 8.7% | 8.3% | 8.4% |  |

— patent US20200299730A1
